Columns and labels:
Conditions in all cases: remark: other sources report otherwise
[1] = molecular target: EBOV GPddmuc (Ebola virus (EBOV)), Q05320
[2] = molecular target: SUDV GPddmuc (Sudan virus (SUDV)), Q66814
[3] = molecular target: MARV GPddmuc (Marburg virus (MARV)), P35253

Row | Binder | EC50 [1] [µg/mL] | EC50 [2] [µg/mL] | EC50 [3] [µg/mL]
1 | murine monoclonal antibody 16G8 (antibody, V domains shown) VH: EVQLQESGPGLVKPGASVKISCKASGYSFTGYYMNWVKQSPEKSLEWIGEINPSTGGTTYNQKFKAKATLTVDKSSSTAYMQLKSLTSEDSAVYYCVRYSHYYGSGSWYFDVWGTGTTVTVSS VL: DIQMTQSPASLSASVGETVTITCRASENIYSNLAWYQQKQGKSPQLLVNAATNLADGVPSRFSGSGSGTQFSLKINSLQPEDFGSYYCQHFYVTPYMFGSGTKLEIKR | 1.23 | 0.22 | –
2 | murine monoclonal antibody 8C4 (antibody, V domains shown) VH: EVQLQESGPELKKPGETVKISCKASGYTFTTYGMSWVKQAPGKGLKWMGRINTYSGVPTYADEFKGRFAFSLENSASTAYLQINNLKNEDTATYFCARGDGGHWFANWGQGTLVTVSA VL: DIQMTQSPSSLSASLGGKVTITCKASQDINKNIAWYQHKPGKGPRLLIWYKSALQPGIPSRFSGSGSGRDYSFSISNLEPEDIATYSCLQYDNLPPTFGGGTKLEIKR | 0.21 | 0.06 | –
3 | murine monoclonal antibody 17C6 (antibody, V domains shown) VH: EVQLQESGPGLVQPSQSLSITCTVSGFSLTSYGVHWVRQSPGKGLEWLGVIWSGGSTDYNAAFISRLSISKDNSKSQVFFKMNSLQADDTAIYYCARNWFDYDNYYSMDYWGQGTSVTVSS VL: DIQMTQTTSSLSASLGDRVTISCRASQDISNYLNWYQQKPDGTVKLLIYYTSRLHSGVPSRFSGSGSGTDFSLTISNQEPEDIATYYCQQYSNLPWTFGGGTKLEIKR | 0.03 | 0.03 | –
4 | murine monoclonal antibody 21B2 (antibody, V domains shown) VH: EVQLQESGAELVRPGASVTLSCKTSGYTFTDYEMHWVKQTPVHGLEWIGAIDPETGGTAYNQKFKGKATLTADKSSSTAYMELSRLTSEDSAVYYCTGNYATDYWGQGTSVTVSS VL: DIVMSQSPSSLAVSAGEKVTMSCKSSQSLFNSRSRKNYLAWYQLKPGQSPKLLIYWASTRESGVPDRFTGSGSGTDFTLTISSVQAEDLAVYYCKQSNYLWTFGGGTKLEIKR | > 10 | – | 0.0307
5 | murine monoclonal antibody 2D8 (antibody, V domains shown) VH: EVQLQESGGELVRPGTSVKISCKASGYTFTNFWLGWIKERPGHGLEWIGDIYPGGHYTNYNENFKGKATLTADTSSNTAYMQVSSLTSEDSAVYFCFTQYYDMDYWGQGTSVTVSS VL: not shown | 26.2 | > 10 | 0.0573

— patent US20180237502A1
